Experimental data: article PMC7293033 (2020)

Molecular target: His-FGF2, LMW FGF2 (residues 135-288, C211S/C229S) (human, UniProt P09038 135-288, C211S | C229S)
Test: SPR

Sequence of His-FGF2, LMW FGF2 (residues 135-288, C211S/C229S) (P09038 135-288 C211S/C229S): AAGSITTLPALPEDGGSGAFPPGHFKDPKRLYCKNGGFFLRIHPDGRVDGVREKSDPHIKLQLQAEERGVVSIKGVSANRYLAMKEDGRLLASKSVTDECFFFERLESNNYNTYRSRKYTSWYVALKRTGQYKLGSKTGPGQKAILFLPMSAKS

koff: 0.00474 s⁻¹
B1: His-API5 (apoptosis inhibitor 5, residues 1-504, isoform 2), wild type (natural protein)
chain: MPTVEELYRNYGILADATEQVGQHKDAYQVILDGVKGGTKEKRLAAQFIPKFFKHFPELADSAINAQLDLCEDEDVSIRRQAIKELPQFATGENLPRVADILTQLLQTDDSAEFNLVNNALLSIFKMDAKGTLGGLFSQILQGEDIVRERAIKFLSTKLKTLPDEVLTKEVEELILTESKKVLEDVTGEEFVLFMKILSGLKSLQTVSGRQQLVELVAEQADLEQTFNPSDPDCVDRLLQCTRQAVPLFSKNVHSTRFVTYFCEQVLPNLGTLTTPVEGLDIQLEVLKLLAEMSSFCGDMEKLETNLRKLFDKLLEYMPLPPEEAENGENAGNEEPKLQFSYVECLLYSFHQLGRKLPDFLTAKLNAEKLKDFKIRLQYFARGLQVYIRQLRLALQGKTGEALKTEENKIKVVALKITNNINVLIKDLFHIPPSYKSTVTLSWKPVQKVEIGQKRASEDTTSGSPPKKSSAGPKRDARQIYNPPSGKYSSNLGNFNYERSLQGK
